Laboratory results reported in patent WO2020033925A2 (dated 2020).

Molecular target: human BTN3A1 ectopically expressed on K32 cells (human, UniProt O00481 30-513)
Test: cell-based or functional assay

Sequence of human BTN3A1 ectopically expressed on K32 cells (O00481 30-513 limits assumed, form in doubt): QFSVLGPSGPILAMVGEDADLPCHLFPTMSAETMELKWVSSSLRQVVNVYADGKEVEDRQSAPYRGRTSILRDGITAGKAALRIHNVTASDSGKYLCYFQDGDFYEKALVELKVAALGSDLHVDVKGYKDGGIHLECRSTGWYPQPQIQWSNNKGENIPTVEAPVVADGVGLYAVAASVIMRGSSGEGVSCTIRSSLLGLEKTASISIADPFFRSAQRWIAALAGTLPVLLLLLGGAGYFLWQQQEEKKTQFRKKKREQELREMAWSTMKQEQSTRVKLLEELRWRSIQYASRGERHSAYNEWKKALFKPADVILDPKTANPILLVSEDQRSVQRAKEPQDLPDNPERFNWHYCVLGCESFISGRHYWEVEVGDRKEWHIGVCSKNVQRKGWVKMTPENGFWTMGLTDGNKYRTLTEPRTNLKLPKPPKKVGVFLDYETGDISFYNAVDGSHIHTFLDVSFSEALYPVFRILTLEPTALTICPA

proliferation of gated CD4+ T cells within total PBMCs co-cultured with anti-CD3/anti-CD28 coated BTN-K32 cells (Figure 3A): ≥ 1.5 fold | proliferation of gated CD8+ T cells within total PBMCs co-cultured with anti-CD3/anti-CD28 coated BTN-K32 cells (Figure 3C): ≥ 1.5 fold | proliferation of purified CD4+ T cells stimulated with BTN-K32 cells (Figure 4A): ≥ 1.5 fold | proliferation of purified CD8+ T cells stimulated with BTN-K32 cells (Figure 4C): ≥ 2 fold | release of IFN-g from purified CD4+ T cells stimulated with BTN-K32 cells (ELISA, Figure 5A): > 2 fold | release of IFN-g from purified CD8+ T cells stimulated with BTN-K32 cells (ELISA, Figure 5C): ~1300 fold
B1: anti-CD277 monoclonal antibody mAb1 (antibody, V domains shown)
VH: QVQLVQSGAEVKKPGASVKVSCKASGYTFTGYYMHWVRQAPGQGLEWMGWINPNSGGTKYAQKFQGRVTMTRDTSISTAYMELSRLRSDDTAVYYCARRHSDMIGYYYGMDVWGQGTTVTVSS
VL: DIQMTQSPSSVSASVGDRVTITCRASQGISSWLAWYQQKPGKAPKLLIYAASSLQSGVPSRFSGSGSGTDFTLTISSLQPEDFATYYCQQATDFPPTFGGGTKVEIK
